Measurements taken from PMC10201420, “Structural basis for guide RNA selection by the RESC1–RESC2 complex”.

Assays:
RESC1;RESC2 K311S/R402D = RESC1;RESC2 K311S/R402D (Trypanosoma brucei;Trypanosoma brucei, UniProt Q57XL7;Q586X1 22-473;33-492, |K311S;R402D); assay: analytical SEC; SEC: 20 mM HEPES pH 7.5, 2 mM MgCl2, 1 mM DTT, variable NaCl; purification at 4 C; exact binding assay salt and temperature not in material; conditions: protein: recombinant;recombinant; tags: N-terminal 6xHis-3C (cleaved when needed);none; copies: 1;1
RESC1;RESC2 = biological target: T1, RESC1;RESC2 (Trypanosoma brucei;Trypanosoma brucei, UniProt Q57XL7;Q586X1 22-473;33-492, |); assay: as above; conditions: protein: recombinant;recombinant; tags: N-terminal 6xHis-3C (cleaved when needed);none; copies: 1;1
T1 sequence 1: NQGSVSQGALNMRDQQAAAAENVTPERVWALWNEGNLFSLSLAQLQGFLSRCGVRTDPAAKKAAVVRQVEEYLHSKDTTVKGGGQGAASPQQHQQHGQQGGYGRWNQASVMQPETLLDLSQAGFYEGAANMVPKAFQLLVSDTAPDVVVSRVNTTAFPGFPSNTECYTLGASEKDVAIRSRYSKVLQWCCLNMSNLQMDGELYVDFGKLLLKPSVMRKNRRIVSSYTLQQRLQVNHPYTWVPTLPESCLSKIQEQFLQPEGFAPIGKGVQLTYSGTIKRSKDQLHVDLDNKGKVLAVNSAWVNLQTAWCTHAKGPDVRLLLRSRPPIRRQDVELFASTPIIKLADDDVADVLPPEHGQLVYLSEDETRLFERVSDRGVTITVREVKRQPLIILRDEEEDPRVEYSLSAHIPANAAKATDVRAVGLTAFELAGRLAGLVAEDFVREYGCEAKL
T1 sequence 2: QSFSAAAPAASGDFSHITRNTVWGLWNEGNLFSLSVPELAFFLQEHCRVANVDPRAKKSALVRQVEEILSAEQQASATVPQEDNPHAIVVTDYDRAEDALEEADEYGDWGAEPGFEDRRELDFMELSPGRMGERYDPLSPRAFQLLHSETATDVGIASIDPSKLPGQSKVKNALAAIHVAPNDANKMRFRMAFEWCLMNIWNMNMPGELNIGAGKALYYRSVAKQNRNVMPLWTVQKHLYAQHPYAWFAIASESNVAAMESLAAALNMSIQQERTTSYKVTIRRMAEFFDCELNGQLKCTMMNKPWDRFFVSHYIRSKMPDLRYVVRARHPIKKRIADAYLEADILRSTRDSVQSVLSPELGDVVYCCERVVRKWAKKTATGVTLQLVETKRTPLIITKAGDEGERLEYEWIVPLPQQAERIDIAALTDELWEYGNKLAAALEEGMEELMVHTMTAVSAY

B1: gRNA gND7(506), 5'-triphosphate (ssRNA)
RNA: GGGAUAUAAAUACGAUGUAAAUAACCUGUAGUAUAGUUAGUGUAUAUAGUGAAA
modifications: 5'-triphosphate
binding result (RESC1;RESC2 K311S/R402D): no binding | binding result (RESC1;RESC2): binds

B2: gRNA gND7(506), 5'-hydroxyl (ssRNA)
RNA: B1 RNA
modifications: 5'-OH, no triphosphate
binding result (RESC1;RESC2): no binding
